B1: BEX1 (parent)
chain: EENMERIGEEVRQLMEKLREKQLS

Variants of: B1
Assay: protein stability index of a GFP-peptide fusion (GPS, HEK-293T) (PSI 1-6); higher = more stable
Conditions: c terminus: a fixed tail appended
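Note: lentivirally expressed fusions sorted by FACS into six bins by GFP to DsRed ratio, PSI derived from sequencing read proportions per bin multiplied by bin number.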

In order of rising protein stability index:
1. EENMERIGEEVRQLAEKLREKQLS [M15A]  2.64
2. EENMERIGEEVRQLMPKLREKQLS [E16P]  2.69
3. EENMERIGERVRQLMEKLREKQLS [E10R]  2.79
4. EENMERIGEEVRQLMWKLREKQLS [E16W]  2.85
5. EENMERIGEFVRQLMEKLREKQLS [E10F]  2.91
6. EENMERIGEEVRQLNEKLREKQLS [M15N]  3.02
7. EENMERIGEAVRQLMEKLREKQLS [E10A]  3.09
8. EENMERIGEEVRQLMVKLREKQLS [E16V]  3.31
9. EENMERIGEEVRWLMEKLREKQLS [Q13W]  3.37
10. EENMERIGEEVRQMMEKLREKQLS [L14M]  3.38
11. EENMERIGEESRQLMEKLREKQLS [V11S]  3.41
12. EENMERIGEEVRTLMEKLREKQLS [Q13T]  3.45
13. EENMERIGEMVRQLMEKLREKQLS [E10M]  3.51
14. EENMERIGEWVRQLMEKLREKQLS [E10W]  3.67
15. EENMERIGEEVRQLWEKLREKQLS [M15W]  3.71
16. EENMERIGEEVRQLMEILREKQLS [K17I]  3.76
17. EENMERIGEEVLQLMEKLREKQLS [R12L]  3.77
18. EENMERIGEEVRQLVEKLREKQLS [M15V]  3.78
19. EENMERIGEEVRQLMEKCREKQLS [L18C]  3.82
20. EENMERIGEEVRQLMCKLREKQLS [E16C]  3.87
21. EENMERIGEEVRQLMRKLREKQLS [E16R]  3.89
22. EENMERIGEKVRQLMEKLREKQLS [E10K]  3.89
23. EENMERIGETVRQLMEKLREKQLS [E10T]  3.96
24. EENMERIGEHVRQLMEKLREKQLS [E10H]  4
25. EENMERIGEEVRHLMEKLREKQLS [Q13H]  4.04
26. EENMERIGEEVRQIMEKLREKQLS [L14I]  4.06
27. EENMERIGVEVRQLMEKLREKQLS [E9V]  4.07
28. EENMERIGEEVRQLFEKLREKQLS [M15F]  4.08
29. EENMERIGEEVNQLMEKLREKQLS [R12N]  4.1
30. EENMERIGEEVFQLMEKLREKQLS [R12F]  4.12
31. EENMERIGEYVRQLMEKLREKQLS [E10Y]  4.13
32. EENMERIGEEVRQLMEWLREKQLS [K17W]  4.17
33. EENMERIGYEVRQLMEKLREKQLS [E9Y]  4.17
34. EENMERIGEECRQLMEKLREKQLS [V11C]  4.19
35. EENMERIGEEVIQLMEKLREKQLS [R12I]  4.22
36. EENMERIGEEVRILMEKLREKQLS [Q13I]  4.23
37. EENMERIGEGVRQLMEKLREKQLS [E10G]  4.24
38. EENMERIGEEFRQLMEKLREKQLS [V11F]  4.25
39. EENMERIGESVRQLMEKLREKQLS [E10S]  4.31
40. EENMERIGEEVRQLMKKLREKQLS [E16K]  4.32
41. EENMERIGEEVRQCMEKLREKQLS [L14C]  4.33
42. EENMERIGEEVRQLMEQLREKQLS [K17Q]  4.38
43. EENMERIGEEVCQLMEKLREKQLS [R12C]  4.43
44. EENMERIGEEVRQLMNKLREKQLS [E16N]  4.45
45. EENMERIGEEVRQLMEKIREKQLS [L18I]  4.48
46. EENMERIGEEVRQLMHKLREKQLS [E16H]  4.49
47. EENMERIGEEVRMLMEKLREKQLS [Q13M]  4.5
48. EENMERIGEETRQLMEKLREKQLS [V11T]  4.5
49. EENMERIGEEVRCLMEKLREKQLS [Q13C]  4.53
50. EENMERIGEEVRQYMEKLREKQLS [L14Y]  4.58
51. EENMERIGEEVRQLMEKMREKQLS [L18M]  4.59
52. EENMERIGEEVMQLMEKLREKQLS [R12M]  4.62
53. EENMERIGELVRQLMEKLREKQLS [E10L]  4.63
54. EENMERIGEEMRQLMEKLREKQLS [V11M]  4.63
55. EENMERIGEELRQLMEKLREKQLS [V11L]  4.68
56. EENMERIGEEVRQWMEKLREKQLS [L14W]  4.7
57. EENMERIGEEVRQLMEKLAEKQLS [R19A]  4.72
58. EENMERIGEPVRQLMEKLREKQLS [E10P]  4.75
59. EENMERIGEEVRQLMEDLREKQLS [K17D]  4.76
60. EENMERIGEDVRQLMEKLREKQLS [E10D]  4.76
61. EENMERIGEEVKQLMEKLREKQLS [R12K]  4.78
62. EENMERIGEEVRPLMEKLREKQLS [Q13P]  4.79
63. EENMERIGEEVRQLMEKWREKQLS [L18W]  4.84
64. EENMERIGEEVSQLMEKLREKQLS [R12S]  4.85
65. EENMERIGEEVRQLMEGLREKQLS [K17G]  4.86
66. EENMERIGEEVRQLIEKLREKQLS [M15I]  4.87
67. EENMERIGEEVRQLEEKLREKQLS [M15E]  4.89
68. EENMERIGEEVRQLYEKLREKQLS [M15Y]  4.89
69. EENMERIGEEVRQVMEKLREKQLS [L14V]  4.97
70. EENMERIGEEVRQLLEKLREKQLS [M15L]  4.98
71. EENMERIGEEVRQQMEKLREKQLS [L14Q]  5.03
72. EENMERIGEEVRQHMEKLREKQLS [L14H]  5.03
73. EENMERIGEEVRQLMEKHREKQLS [L18H]  5.04
74. EENMERIGEEKRQLMEKLREKQLS [V11K]  5.09
75. EENMERIGEEVPQLMEKLREKQLS [R12P]  5.1
76. EENMERIGEEVRQLTEKLREKQLS [M15T]  5.18
77. EENMERIGEEVRGLMEKLREKQLS [Q13G]  5.2
78. EENMERIGEEVRQLMEKKREKQLS [L18K]  5.26
79. EENMERIGEEVVQLMEKLREKQLS [R12V]  5.27
80. EENMERIGEEVRQLMEKLEEKQLS [R19E]  5.31
81. EENMERIGEEVRQLMEKEREKQLS [L18E]  5.35
82. EENMERIGEEPRQLMEKLREKQLS [V11P]  5.37
83. EENMERIGEEVRELMEKLREKQLS [Q13E]  5.38
84. EENMERIGEERRQLMEKLREKQLS [V11R]  5.38
85. EENMERIGEEVHQLMEKLREKQLS [R12H]  5.45
86. EENMERIGEENRQLMEKLREKQLS [V11N]  5.46
87. EENMERIGEEVRQLPEKLREKQLS [M15P]  5.5
88. EENMERIGEEVRQLMEKTREKQLS [L18T]  5.53
89. EENMERIGEEVRQRMEKLREKQLS [L14R]  5.59
90. EENMERIGEEGRQLMEKLREKQLS [V11G]  5.64
91. EENMERIGEEVRQNMEKLREKQLS [L14N]  5.76
92. EENMERIGEEVRQLMEKPREKQLS [L18P]  5.86
93. EENMERIGEEHRQLMEKLREKQLS [V11H]  5.86
94. EENMERIGEEDRQLMEKLREKQLS [V11D]  5.92

Source: the supplement of paper PMC10567573
